Several values for one entry are separate records, joined by “and”; a condition that tells them apart may be missing. Equal values may be shown once.
Experiments:
[1] = tested on: fibrin
[2] = target: human fibrinogen (UniProt P02671)
[3] = tested on: azocasein

“antithrombosis enzyme purified from the snake venom of Southern-Anhui Agkistrodon acutus” was tested, and the fibrinolytic activity [1] was 1 fibrinolytic activity unit per mg protein, the fibrinolytic activity (fibrin-plate-clearance assay) ([1]; scale: fibrinolytic activity units per mg of enzyme) was 1 and 3 and the fibrinogen cleavage [2] was “One fibrinogen cleavage site was found to be Met 235-Pro236 of the α chain of human fibrinogen”. For the same substance, the “proteolytic activity (azocasein hydrolysis, absorbance at 390 nm)” value [3] was “No proteolytic activity was detected in this assay”.
